From PMC3660329, “Molecular Identification of Carnosine N-Methyltransferase as Chicken Histamine N-Methyltransferase-Like Protein (HNMT-Like)” (PLoS ONE, 2013)

B1: chicken HNMT-like protein (recombinant carnosine N-methyltransferase) (Gallus gallus) (protein)
chain: MEPTPEMKRNRLPSMNFEAEILADPHDNSELYVIPSMRSLTAEEYVEAFQSFLDHSTEHQCMDEFNKEVMPHIMAGLGNGKSTINILGVGSGTGEQDLKMIQILQAAHPGVLINNEIIEPNPQHVAAYKELVNRAPDLQGVSFTWHQLTSSEYEQQVKEKNTHKKFDFIHMIQMLYRVEDIPNTIKFFHSCLNHQGKLLIIILSDSSGWASLWKKYRHCLPSTDSGHYITSDSITAVLRKLGIKYHVYEFPSGWDITECFIEGDPAGGHMMDFLTGTKNFLGTAPAALRSRLQEALCQPECSSRKDGRVIFCNNLSMIVAES
notes: full-length ORF from pectoral muscle cDNA, C-terminal His6 tag (pEF6/Myc-His A), expressed in COS-7, HisTrap purified to homogeneity, monomer about 38 kDa (36 kDa without tag)
B2: carnosine N-methyltransferase (native, chicken pectoral muscle) (Gallus gallus) (protein)
chain: B1 chain
notes: about 45 kDa by gel filtration

Key:
Assay in all cases: radiochemical methyl transfer from (3H)SAM, nonlinear regression
Assay type in all cases: biochemical, Gallus gallus
[1] = substrate: NCCC(=O)N[C@@H](Cc1cnc[nH]1)C(=O)O; conditions: non-saturating 1 µM SAM, 1 mM MgCl2, pH 7.5, 37 °C
Text: (§1) radiochemical methyl transfer from (3H)SAM, nonlinear regression on chicken HNMT-like protein (recombinant carnosine N-methyltransferase)

[2] = substrate: C[S+](CC[C@H](N)C(=O)O)C[C@H]1O[C@@H](n2cnc3c(N)ncnc32)[C@H](O)[C@@H]1O; conditions: 20 mM carnosine, variable (1H+3H)SAM, 1 mM MgCl2, pH 7.5, 37 °C, labelled compound
Text: as §1

[3] = substrate: NCCC(=O)N[C@@H](Cc1cnc[nH]1)C(=O)O; conditions: non-saturating 1 µM SAM, 1 mM MgCl2, pH 7.5, 37 °C; remark: listed apart in the source
Text: (§2) radiochemical methyl transfer from (3H)SAM, nonlinear regression on carnosine N-methyltransferase (native, chicken pectoral muscle)

[4] = substrate: C[S+](CC[C@H](N)C(=O)O)C[C@H]1O[C@@H](n2cnc3c(N)ncnc32)[C@H](O)[C@@H]1O; conditions: 20 mM carnosine, variable (1H+3H)SAM, 1 mM MgCl2, pH 7.5, 37 °C, labelled compound; remark: listed apart in the source
Text: as §2

Protein	Km [1]	Vmax [1]	kcat [1]	Km [2]	Vmax [2]	kcat [2]	Km [3]	Vmax [3]	kcat [3]	Km [4]	Vmax [4]	kcat [4]
B1	1628 ± 71 µM	0.0519 µmol/min/mg	0.034 ± 0.001 s⁻¹	14 ± 1 µM	0.786 µmol/min/mg	0.519 ± 0.013 s⁻¹						
B2							1646 ± 157 µM	0.0138 µmol/min/mg	0.008 s⁻¹	11 ± 1 µM	0.153 µmol/min/mg	0.093 ± 0.002 s⁻¹
